Measurements taken from the supplement of paper PMC10724198.
± gives the standard deviation of the averaged measurements.

Test system: Saccharomyces cerevisiae
Test: protein stability index of tFT-peptide fusion (C-terminal peptide) (PSI (0-1 scale)); higher = more stable (slower turnover)
Details: temperature: 30 C
Procedure: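 MPS profiling in S. cerevisiae of the yeast C-terminome library: the last 12 aa of each annotated ORF are fused to the C-terminus of a sfGFP-mCherry timer, after a GGGS linker. Cells are FACS-sorted into 8 mCherry/sfGFP bins and deep-sequenced. PSI runs from 0 (unstable) to 1 (stable); wild type and das1Δ backgrounds, two technical replicates each.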

[1] = genetic background: das1 deletion

Sequence	protein stability index [1]	protein stability index (genetic background: wild type)
DFPHEAVVREML [TVP18 C-terminal 12 aa]	0.7167 ± 0.0023	0.6914 ± 0.0026
HAQKRVSNASAR [SKI6 C-terminal 12 aa]	0.6983 ± 0.0028	0.6988 ± 0.0036
GFADLDNFMSSL [HAA1 C-terminal 12 aa]	0.686 ± 0.039	0.689 ± 0.033
QIEWVDINRVTY [RAD50 C-terminal 12 aa]	0.732 ± 0.014	0.735 ± 0.052
DFVYNEEDFEKL [NOT5 C-terminal 12 aa]	0.718 ± 0.015	0.681 ± 0.014
FVYERMKWNFGI [LEU5 C-terminal 12 aa]	0.7059 ± 0.0044	0.275 ± 0.025
PNEFLRDQSTDI [APL5 C-terminal 12 aa]	0.707 ± 0.031	0.66 ± 0.02
QREEALISLNDW [REV3 C-terminal 12 aa]	0.726 ± 0.016	0.713 ± 0.025
RAMNEDETLRNL [ORC1 C-terminal 12 aa]	0.6957 ± 0.0042	0.746 ± 0.012
VTPEEDEEEDEE [RPL22A C-terminal 12 aa]	0.68 ± 0.03	0.676 ± 0.062
ANTHSSLICSKP [YBR209W C-terminal 12 aa]	0.6854 ± 0.0039	0.701 ± 0.044
LSKDGIYTAVPN [PAU23 C-terminal 12 aa]	0.6917 ± 0.0018	0.702 ± 0.0078
GGQNSPGDMAVA [YDL199C C-terminal 12 aa]	0.692 ± 0.011	0.741 ± 0.068
AEIIDSLLEQIN [NSI1 C-terminal 12 aa]	0.744 ± 0.019	0.6797 ± 0.0017
FGSNVNQQFNFN [SRP1 C-terminal 12 aa]	0.723 ± 0.0085	0.719 ± 0.032
VARLKDESENVW [COX16 C-terminal 12 aa]	0.689 ± 0.018	0.732 ± 0.041
SICPAIRRKEDY [RDT1 C-terminal 12 aa]	0.699 ± 0.025	0.659 ± 0.025
MPGGMPGMPGMM [HSP60 C-terminal 12 aa]	0.7 ± 0.00077	0.709 ± 0.0041
TSNNIFGSDQKY [MNN14 C-terminal 12 aa]	0.694 ± 0.016	0.741 ± 0.037
INKDMTKKKMKF [MFG1 C-terminal 12 aa]	0.689 ± 0.029	0.677 ± 0.029
LDAILLDIICND [MDM1 C-terminal 12 aa]	0.697 ± 0.0082	0.735 ± 0.045

Sequence	protein stability index [1]	protein stability index (genetic background: wild type)
KMQGKYIKKKAM [YNR001W-A C-terminal 12 aa]	0.7139 ± 0.0039	0.385 ± 0.024
SNENARNNNPYL [FLC2 C-terminal 12 aa]	0.6906 ± 0.0056	0.705 ± 0.043
GSVCFIMDYFTG [VPS62 C-terminal 12 aa]	0.706 ± 0.013	0.677 ± 0.015
IFFILYTLFKLF [SFT1 C-terminal 12 aa]	0.422 ± 0.0091	0.199 ± 0.01
ESKKTKGEELTL [ARG1 C-terminal 12 aa]	0.6793 ± 0.0016	0.669 ± 0.015
TSNDLPAECVIS [EGH1 C-terminal 12 aa]	0.72 ± 0.0097	0.68843 ± 0.00034
GNIVSQDLLDLF [APL2 C-terminal 12 aa]	0.724 ± 0.034	0.7 ± 0.012
QAYIYIYIHIVN [EST2 C-terminal 12 aa]	0.195 ± 0.0094	0.0717 ± 0.017
FDDSSSVSSKSD [GPC1 C-terminal 12 aa]	0.717 ± 0.014	0.695 ± 0.027
VQRSASVVERQE [DUS4 C-terminal 12 aa]	0.6971 ± 0.0051	0.694 ± 0.0013
IAPIRIYKITKQ [EFM3 C-terminal 12 aa]	0.686 ± 0.028	0.677 ± 0.039
QLKKSKVSVELE [MAK11 C-terminal 12 aa]	0.6803 ± 0.0023	0.687 ± 0.047
DTSPAQEQSPAN [ARG80 C-terminal 12 aa]	0.695 ± 0.026	0.709 ± 0.013
RKDEHIVQNIIN [YGR164W C-terminal 12 aa]	0.6993 ± 0.0033	0.681 ± 0.029
LRLKGNAKAPGA [CLC1 C-terminal 12 aa]	0.70418 ± 0.00015	0.729 ± 0.012
PIDPKAFTFDSR [YCL012C C-terminal 12 aa]	0.73549 ± 0.00064	0.73 ± 0.016
KMLWQGITDYYI [YOL163W C-terminal 12 aa]	0.7357 ± 0.0031	0.717 ± 0.021
VFTRLYSTLWSY [YDR149C C-terminal 12 aa]	0.6867 ± 0.0054	0.145 ± 0.0086
PKSFVPRDIEKK [YGR265W C-terminal 12 aa]	0.695 ± 0.018	0.701 ± 0.056
SSFSLSLPRLNQ [SPT7 C-terminal 12 aa]	0.6893 ± 0.0022	0.675 ± 0.028
KRMALFVQEKLA [YFL031C-A C-terminal 12 aa]	0.717 ± 0.0081	0.18 ± 0.0051

Sequence	protein stability index [1]	protein stability index (genetic background: wild type)
IKKRKVQNRAMS [YOL038C-A C-terminal 12 aa]	0.701 ± 0.017	0.73 ± 0.0083
HSNTLKRKIEQV [PUS4 C-terminal 12 aa]	0.7252 ± 0.0013	0.697 ± 0.012
AGVNSARGVLRI [SFT2 C-terminal 12 aa]	0.6898 ± 0.0045	0.71 ± 0.023
SRRRPFIGPETV [YMR057C C-terminal 12 aa]	0.709 ± 0.037	0.703 ± 0.0072
GKEHRFGLHIRS [DPH6 C-terminal 12 aa]	0.6887 ± 0.0022	0.698 ± 0.026
LYGKYNYAAQKV [YDL124W C-terminal 12 aa]	0.692 ± 0.013	0.333 ± 0.014
ISVYCGTTLEVM [TFC8 C-terminal 12 aa]	0.44 ± 0.016	0.469 ± 0.013
SVYEHEHEKTFI [FUR4 C-terminal 12 aa]	0.7127 ± 0.0018	0.706 ± 0.0091
ITEVNVSLEEKL [FHL1 C-terminal 12 aa]	0.6842 ± 0.0013	0.7078 ± 0.0013
EVKVDKVVYEKE [VPS29 C-terminal 12 aa]	0.683 ± 0.067	0.725 ± 0.04
KGNSMVVHGAQS [SHE3 C-terminal 12 aa]	0.687 ± 0.026	0.6853 ± 0.0059
SNSSICFPLTIF [YKL136W C-terminal 12 aa]	0.6337 ± 0.0033	0.2798 ± 0.0007
LRTTSSMEKKLN [ALG3 C-terminal 12 aa]	0.7064 ± 0.00072	0.205 ± 0.0049
MRLTHKSKKKMK [SUE1 C-terminal 12 aa]	0.72 ± 0.026	0.695 ± 0.0075
KQKALRGEFGAF [RNA15 C-terminal 12 aa]	0.709 ± 0.011	0.688 ± 0.01
QFQTLNNLYFAQ [IME4 C-terminal 12 aa]	0.715 ± 0.02	0.673 ± 0.044
AIAPTSLLTPMP [YER087C-A C-terminal 12 aa]	0.6937 ± 0.0021	0.733 ± 0.013
LKKIATKFWGKH [TRK2 C-terminal 12 aa]	0.697 ± 0.016	0.714 ± 0.066
NDLITYMTKAAK [CYC7 C-terminal 12 aa]	0.722 ± 0.031	0.756 ± 0.14
TGKDVMKGALGF [SRO7 C-terminal 12 aa]	0.6953 ± 0.0023	0.667 ± 0.024
VRQMNRLATPLI [PUS2 C-terminal 12 aa]	0.7095 ± 0.0057	0.7391 ± 0.0066

Sequence	protein stability index [1]	protein stability index (genetic background: wild type)
FWHEVVVFPIPN [YDR015C C-terminal 12 aa]	0.717 ± 0.017	0.716 ± 0.062
RILKDEIPIGED [BET3 C-terminal 12 aa]	0.702 ± 0.017	0.659 ± 0.0079
IQKLNKVLEDSI [ATP5 C-terminal 12 aa]	0.6748 ± 0.0023	0.675 ± 0.02
MEKENSGLIAFS [HOS2 C-terminal 12 aa]	0.7089 ± 0.0061	0.7064 ± 0.0059
SSASPEVDCRCG [YLR444C C-terminal 12 aa]	0.705 ± 0.0094	0.7312 ± 0.0057
MELWYTCLSKNL [YCR050C C-terminal 12 aa]	0.694 ± 0.048	0.671 ± 0.034
NPKNLINDVRRT [CVM1 C-terminal 12 aa]	0.704 ± 0.011	0.635 ± 0.025
EEADSLYISMGL [LCD1 C-terminal 12 aa]	0.709 ± 0.021	0.701 ± 0.012
KKVLLQAKQYSK [UBC9 C-terminal 12 aa]	0.678 ± 0.017	0.682 ± 0.031
APVAAGESESSL [SRO9 C-terminal 12 aa]	0.6991 ± 0.0048	0.687 ± 0.007
EVSTEDTVHDEL [EUG1 C-terminal 12 aa]	0.675 ± 0.0097	0.683 ± 0.041
PLSYDPLGNLIR [TSR3 C-terminal 12 aa]	0.7339 ± 0.0027	0.728 ± 0.061
FARFITAIFHHI [MKC7 C-terminal 12 aa]	0.73 ± 0.019	0.153 ± 0.0061
TSSTPKSPSSGS [SMY1 C-terminal 12 aa]	0.691 ± 0.018	0.67 ± 0.014
EIKKIYQNEKKI [DPC7 C-terminal 12 aa]	0.726 ± 0.044	0.677 ± 0.029
PFDYSDIPAADI [GPI10 C-terminal 12 aa]	0.714 ± 0.023	0.698 ± 0.019
KLGSYLRDYLRK [GLO3 C-terminal 12 aa]	0.707 ± 0.0072	0.689 ± 0.0095
FHHMLIFIILKL [PRM2 C-terminal 12 aa]	0.203 ± 0.013	0.193 ± 0.028
EGVSIIESTFIN [YLR225C C-terminal 12 aa]	0.693 ± 0.012	0.68 ± 0.051
